Source: publication PMC7064642

Target: importin-α/β carrier protein complex (α/β importin heterodimer)
Assay: MST; importin β labelled with Cy3; α/β importin heterodimers at equimolar 50 nM; MNT serially diluted from 1 µM (MNT_(N-EGF)) or 4 µM (MNT_(N-affibody), MNT_(C-EGF)); 20 mM HEPES pH 7.4, 110 mM KCl, 5 mM NaHCO3, 5 mM MgCl2, 0.1 mM CaCl2, 1 mM EGTA, 1 mM DTT; Monolith NT.115

Row | Substance | Kd [nM]
1 | 6His-DTox-HMP-NLS-EGF modular nanotransporter (MNT_(C-EGF)) | 127
2 | EGF-6His-DTox-HMP-NLS modular nanotransporter (MNT_(N-EGF)) | 15.8
